In article doi:10.1101/2023.07.31.551325 (bioRxiv, 2023):

Molecular target: the molecule itself
Test: AUC

B1: recombinant full-length Plasmodium vivax Sub1 (PvS1FL) (complex)
chain 1: GDILPNEGKKEKDDVHKIISELRFLQKVETILESSNMSVSDVEADANAYNPDRDAPKEELQKLQDQQETPSKQPNNLRNSPQKRAEKKESPGKNKKSLRLIVSENHATSPSFFEESLLQEDVVSFIQSKGKLSNLKNLKSMIIDLNSDMTDEELAEYISLLERKGALIESDKLVGAD
chain 2: DVSLASVKDAVRRGESSVNWGKLRSTMLEVPSGESPPSHAASSGSPFDDDDDLLSEAALHREEAHLAGSKTTKGYKFNDEYRNLQWGLDLARLDETQDLINANRVSVTKICVIDSGIDYNHPDLRNNIDVNVKELHGRKGVDDDSNGVVDDVYGANFVNNSGDPMDDNYHGTHVSGIISAVGNNGIGIVGVDGHSKLVICKALDQHKLGRLGDMFKCIDYCISRQAHMINGSFSFDEYSNIFNASVEHLRSLGILFFVSASNCAHDKLSKPDIAKCDLAVNHRYPPILSKTHNNVIAVANLKRDLDESYSLSVNSFYSNIYCQLAAPGTNIYSTTPMNNYRKLNGTSMASPHVAAIASIVRSINPNLTYLQIVEILRNAIVKLPSLTERVSWGGYVDILRAVNLAIDSKAAPYIKSHSWFRWKQGSRR
  stoichiometry N: 2
